Laboratory results: US11478551B2, “Long-acting adrenomedullin derivative” (University of Miyazaki, priority 2015, dated 2022)
Marks after values point to notes of the source that are not given here. Positions of bridges follow the written chain, without caps; N, C: chain ends. GL‑2‑branched CH3O‑PEG (40k)‑CH2 = glycerol skeleton-containing 2-branched methoxy-PEG (40 kDa) attached via alkylamine (CH2) linkage; GL‑2‑branched CH3O‑PEG (40k)‑CO = glycerol skeleton-containing 2-branched methoxy-PEG (40 kDa) attached via urethane (CO) linkage

Legend:
AM receptor = biological target: T1, AM receptor (Homo sapiens, UniProt O60895+Q16602); experiment: Intracellular cAMP concentration-increasing effect in HEK293 cell line caused to express an AM receptor; format: cell-based; details: for Intracellular cAMP concentration-increasing effect (%): 10^−8 mol/L, 15 minutes, 0.5 mM IBMX; for influence of N-terminal deletion of the peptide moiety on the intracellular cAMP concentration-increasing effect: in words;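 on all read-outs here: cAMP inside confluent receptor-expressing cells quantified by ELISA after 15 min exposure to each peptide at 10^−8 mol/L alongside 0.5 mM IBMX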
T1 construct: expressed in transfected cells; host or cells: HEK293 cell line
Protocol: 10^−8 mol/L of each compound, h.AM (1-52), h.AM (6-52), h.AM (11-52), h.AM (16-52), or h.AM (1-52)-Gly was added to confluent HEK293 cells (cell count: 5×10^4) in the presence of 0.5 mM IBMX and incubated for 15 minutes. Then, the intracellular cAMP concentration in the HEK293 cells of each test zone was measured using an ELISA kit for cAMP measurement (GE Healthcare Japan Corp., #RPN2251).

Wistar rat = experiment: Blood pressure-lowering effect, single intravenous dose in rat under anesthesia; format: in vivo; details: 1 nmol/kg, single dose into the vein
Protocol: Each compound prepared in experiments I-1 and II-1 or full-length AM was administered in a single dose of 1 nmol/kg into the vein of each rat under anesthesia, and change in the blood pressure of the rat was observed. Each 11 to 14-week-old male Wistar rat was anesthetized by the inhalation of isoflurane. After tracheotomy, inhalational anesthesia was controlled at an isoflurane concentration of 1.5 to 2.5% and a flow rate of 0.6 to 0.8 L/min. The right jugular vein was isolated from the rat, and a catheter tube corresponding to 26 G was inserted thereto. Next, the left carotid artery was isolated from the rat thus treated, and a catheter tube corresponding to 23 G was inserted thereto. From the catheter tube of the right jugular vein, a physiological saline-heparin solution (physiological saline: 100 mL; heparin: 1000 units) was infused at 2.4 mL/hr. […] The catheter inserted in the carotid artery was connected to a pressure transducer. […] In the diagram, the ordinate depicts a difference obtained by subtracting the average blood pressure before the administration of each drug from the average blood pressure at the time of the administration of each drug.

[1] = Measurement over time of AM concentration in plasma after subcutaneous administration (RIA); format: in vivo; details: 10 nmol/kg subcutaneous single dose, rat
Protocol: 1 day, 7 days and 10 days after the start of the administration, 50 mg of pentobarbital was intraperitoneally administered, and 300 μL of blood was collected each time from the tail vain under anesthesia. Immediately, 300 μg of EDTA-2Na and […] of aprotinin were added to the obtained blood sample, and the mixture was centrifuged under conditions involving 10 minutes and 3000 rpm to obtain plasma. The AM concentration in the plasma of each sample was measured by radioimmunoassay (RIA) (Kitamura K, Ichiki Y, Tanaka M et al., Immunoreactive adrenomedullin in human plasma. FEBS Lett., vol. 341, p. 288-90, 1994).
The compound (37) prepared in experiment III-1 was subcutaneously administered in a single dose of 30 nmol/kg to each rat, and time-dependent change in the concentration in blood of the adrenomedullin derivative was observed. The compound (37) dissolved in physiological saline was subcutaneously administered to each 7- to 8-week-old male Wistar rat (approximately 250 g). 1 day, 2 days, 4 days, 7 days and 9 days after the start of the administration, 50 mg of pentobarbital was intraperitoneally administered, and 300 μL of blood was collected each time from the tail vain under anesthesia. Immediately, 300 μg of EDTA-2Na and […] of aprotinin were added to the obtained blood sample, and the mixture was centrifuged under conditions involving 10 minutes and 3000 rpm to obtain plasma. The AM concentration in the plasma of each sample was measured by RIA.

[2] = percentage with respect to h.AM (1-52)
[3] = percentage with respect to h.AM (6-52)
[4] = percentage with respect to h.AM (16-52)

T1 sequence (Q16602 23-461): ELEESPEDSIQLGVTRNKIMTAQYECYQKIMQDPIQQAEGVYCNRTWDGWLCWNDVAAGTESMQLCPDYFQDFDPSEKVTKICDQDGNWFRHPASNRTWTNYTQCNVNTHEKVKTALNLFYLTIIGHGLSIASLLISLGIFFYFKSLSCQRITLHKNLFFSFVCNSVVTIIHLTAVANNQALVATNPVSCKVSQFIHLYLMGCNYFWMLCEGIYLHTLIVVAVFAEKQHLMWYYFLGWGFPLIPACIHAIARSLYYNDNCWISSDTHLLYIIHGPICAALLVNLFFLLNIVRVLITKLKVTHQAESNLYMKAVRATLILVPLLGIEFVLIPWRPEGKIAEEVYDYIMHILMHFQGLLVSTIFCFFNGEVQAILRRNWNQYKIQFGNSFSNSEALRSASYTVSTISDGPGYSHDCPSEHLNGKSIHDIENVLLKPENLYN
T1 sequence (O60895 43-175): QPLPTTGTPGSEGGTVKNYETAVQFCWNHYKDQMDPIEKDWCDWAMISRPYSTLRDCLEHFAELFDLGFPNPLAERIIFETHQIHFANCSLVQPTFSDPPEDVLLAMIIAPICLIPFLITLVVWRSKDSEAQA

Substance	Intracellular cAMP concentration-increasing effect (%) (AM receptor; [2])	influence of N-terminal deletion of the peptide moiety on the intracellular cAMP concentration-increasing effect (AM receptor)	further results
CH3O-PEG (5k)-(CH2)2—CH2-^αNH-(h.AM (6-52)) ({CH3O‑PEG (5k)‑(CH2)2—CH2}-NNFQGLRSFGCRFGTCTVQKLAHQIYQFTDKDKDNVAPRSKISPQGY-NH2; disulfide 11-16 (inferred); ends not checked) [Compound (18)]	90	suppressed the influence of N-terminal deletion	
CH3O-PEG (5k)-(CH2)2—CH2-^αNH-(h.AM (11-52)) ({CH3O‑PEG (5k)‑(CH2)2—CH2}-LRSFGCRFGTCTVQKLAHQIYQFTDKDKDNVAPRSKISPQGY-NH2; disulfide 6-11 (inferred); ends not checked) [Compound (19)]	80	suppressed the influence of N-terminal deletion	
CH3O-PEG (5k)-(CH2)2—CH2-^αNH-(h.AM (16-52)) ({CH3O‑PEG (5k)‑(CH2)2—CH2}-CRFGTCTVQKLAHQIYQFTDKDKDNVAPRSKISPQGY-NH2; disulfide 1-6 (inferred); ends not checked) [Compound (20)]	39	suppressed the influence of N-terminal deletion	
CH3O-PEG (5k)-(CH2)5-CO-^αNH-(h.AM (11-52)) ({CH3O‑PEG (5k)‑(CH2)5‑CO}-LRSFGCRFGTCTVQKLAHQIYQFTDKDKDNVAPRSKISPQGY-NH2; disulfide 6-11 (inferred); ends not checked) [Compound (16), amide linkage-type PEG (5k) adrenomedullin derivative, reference compound]		significantly decreased	Intracellular cAMP concentration-increasing effect (%) (AM receptor; percentage with respect to h.AM (11-52)): 1**^) %
CH3O-PEG (5k)-(CH2)5—CO-^αNH-(h.AM (6-52)) ({CH3O‑PEG (5k)‑(CH2)5—CO}-NNFQGLRSFGCRFGTCTVQKLAHQIYQFTDKDKDNVAPRSKISPQGY-NH2; disulfide 11-16 (inferred); ends not checked) [Compound (15), amide linkage-type PEG (5k) adrenomedullin derivative, reference compound]		significantly decreased	Intracellular cAMP concentration-increasing effect (%) (AM receptor; [3]): 101*^) %
CH3O-PEG (5k)-(CH2)5—CO-^αNH-(h.AM (16-52)) ({CH3O‑PEG (5k)‑(CH2)5—CO}-CRFGTCTVQKLAHQIYQFTDKDKDNVAPRSKISPQGY-NH2; disulfide 1-6 (inferred); ends not checked) [Compound (17), amide linkage-type PEG (5k) adrenomedullin derivative, reference compound]		significantly decreased	Intracellular cAMP concentration-increasing effect (%) (AM receptor; [4]): 9***^) %
CH3O-PEG (20k)-(CH2)2—CH2-^αNH-(h.AM (1-52)) [Compound (4)]			decrease in the blood pressure immediately after the administration, as compared to compound (2) (Wistar rat): further suppressed; rapidly decreased blood pressure immediately after the administration (Wistar rat): not observed
CH3O-PEG (20k)-(CH2)2—CH2-^αNH-(h.AM (6-52)) ({CH3O‑PEG (20k)‑(CH2)2—CH2}-NNFQGLRSFGCRFGTCTVQKLAHQIYQFTDKDKDNVAPRSKISPQGY-NH2; disulfide 11-16 (inferred); ends not checked) [Compound (21)]		high intracellular cAMP concentration-increasing effect without the influence of the N-terminal deletion	Intracellular cAMP concentration-increasing effect (%) (AM receptor; [3]): 98*^) %
CH3O-PEG (20k)-(CH2)2—CH2-^αNH-(h.AM (11-52)) ({CH3O‑PEG (20k)‑(CH2)2—CH2}-LRSFGCRFGTCTVQKLAHQIYQFTDKDKDNVAPRSKISPQGY-NH2; disulfide 6-11 (inferred); ends not checked) [Compound (22)]	97	high intracellular cAMP concentration-increasing effect without the influence of the N-terminal deletion	
CH3O-PEG (20k)-(CH2)2—CH2-^αNH-(h.AM (16-52)) ({CH3O‑PEG (20k)‑(CH2)2—CH2}-CRFGTCTVQKLAHQIYQFTDKDKDNVAPRSKISPQGY-NH2; disulfide 1-6 (inferred); ends not checked) [Compound (23)]	97	high intracellular cAMP concentration-increasing effect without the influence of the N-terminal deletion	
CH3O-PEG (20k)-(CH2)5—CO-^αNH-(h.AM (1-52)) [Compound (2), reference compound]			rapidly decreased blood pressure immediately after the administration (Wistar rat): not observed
GL-2-branched CH3O-PEG (40k)-CH2-^αNH-(h.AM (1-52)-Gly) [Compound (36)]			Intracellular cAMP concentration-increasing effect (%) (AM receptor; percentage with respect to h.AM (1-52)-Gly): 96****^) %
GL-2-branched CH3O-PEG (40k)-CH2-^αNH-(h.AM (16-52)) ({GL‑2‑branched CH3O‑PEG (40k)‑CH2}-CRFGTCTVQKLAHQIYQFTDKDKDNVAPRSKISPQGY-NH2; disulfide 1-6 (inferred); ends not checked) [Compound (24)]			Intracellular cAMP concentration-increasing effect (%) (AM receptor; [4]): 93***^) %
GL-2-branched CH3O-PEG (40k)-CO-^αNH-(h.AM (1-52)) [Compound (27)]			level at time molar at 24 h ([1]; 1 day later): ≥ 3.6 nM; level at time molar at 24 h ([1]; 7 days later): ≥ 0.12 nM

Further lines, with some results ahead:

Intracellular cAMP concentration-increasing effect (%) (AM receptor; [2])	Substance	influence of N-terminal deletion of the peptide moiety on the intracellular cAMP concentration-increasing effect (AM receptor)	further results
99	GL-2-branched CH3O-PEG (20k)-CO-^αNH-(h.AM (6-52)) ({GL‑2‑branched CH3O‑PEG (20k)‑CO}-NNFQGLRSFGCRFGTCTVQKLAHQIYQFTDKDKDNVAPRSKISPQGY-NH2; disulfide 11-16 (inferred); ends not checked) [Compound (30)]		
104	GL-2-branched CH3O-PEG (20k)-CO-^αNH-(h.AM (11-52)) ({GL‑2‑branched CH3O‑PEG (20k)‑CO}-LRSFGCRFGTCTVQKLAHQIYQFTDKDKDNVAPRSKISPQGY-NH2; disulfide 6-11 (inferred); ends not checked) [Compound (31)]		
96	GL-2-branched CH3O-PEG (20k)-CO-^αNH-(h.AM (16-52)) ({GL‑2‑branched CH3O‑PEG (20k)‑CO}-CRFGTCTVQKLAHQIYQFTDKDKDNVAPRSKISPQGY-NH2; disulfide 1-6 (inferred); ends not checked) [Compound (32)]		
77	GL-2-branched CH3O-PEG (40k)-CH2-^αNH-(h.AM (6-52)) ({GL‑2‑branched CH3O‑PEG (40k)‑CH2}-NNFQGLRSFGCRFGTCTVQKLAHQIYQFTDKDKDNVAPRSKISPQGY-NH2; disulfide 11-16 (inferred); ends not checked) [Compound (29)]		
61	GL-2-branched CH3O-PEG (40k)-CO-^αNH-(h.AM (16-52)) ({GL‑2‑branched CH3O‑PEG (40k)‑CO}-CRFGTCTVQKLAHQIYQFTDKDKDNVAPRSKISPQGY-NH2; disulfide 1-6 (inferred); ends not checked) [Compound (33)]		
83	GL-4-branched CH3O-PEG (40k)-CO-^αNH-(h.AM (6-52)) ({GL‑4‑branched CH3O‑PEG (40k)‑CO}-NNFQGLRSFGCRFGTCTVQKLAHQIYQFTDKDKDNVAPRSKISPQGY-NH2; disulfide 11-16 (inferred); ends not checked) [Compound (34)]		
